± gives the standard deviation of the averaged measurements.
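Further: ATP exposure 15 min at 22 °C before imaging.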

In the data set the test system is ATP. Kind of data set: switch fluorescence ratio, 500 uM ATP over buffer (Cy3 cluster intensity, sum of 5 cycles each) (fold (ratio)); higher = stronger signal-on switching upon ATP binding; sequences stand for … in TCGTCGGCAGCGTCAGATGTGTATAAGAGACAGTTTTTTTTTTTTTTTTTTTTTTTTT…TC. As to conditions: aptamer strand: ATP DNA aptamer (quencher-CACCTGGGGGAGTATTGCGGAGGAAGG + anchor), 100 nM annealed; ATP concentration: 500 uM. The procedure, abridged:
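Clusters with intensities outside 100-1000 RFU were excluded. The remaining Cy3-labelled switching-strand clusters on a modified Illumina MiSeq flow-cell had been annealed to 100 nM quencher-labelled ATP aptamer and imaged in selection buffer, then after 15 min with 500 uM ATP at 22 °C, for five cycles separated by NaOH stripping and re-annealing. The fluorescence ratio, averaged per switch-domain sequence, is each cluster's summed target-cycle Cy3 intensity over its summed buffer-cycle Cy3 intensity.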
On to TGCCGGCGCT, for which the switch fluorescence ratio came to 0.989 ± 0.038.

As to GTTTTGTTTT, the switch fluorescence ratio amounted to 0.9758 ± 0.0063.

In the case of GTATAAATGT, the switch fluorescence ratio came to 0.984 ± 0.051.

In the case of GGGCAATTGA, the switch fluorescence ratio came out at 1 ± 0.051.

As for TGGAGGGGAT, the switch fluorescence ratio was determined as 1.02 ± 0.075.

For CTAAGGGGGA, the switch fluorescence ratio amounted to 1 ± 0.018.

On to GATGTAAACC, for which the switch fluorescence ratio worked out at 1.01 ± 0.02.

With TCGCCATCCT, the switch fluorescence ratio was determined as 1.09 ± 0.019.

On to CCCTCCTTG, for which the switch fluorescence ratio is 1.0791 ± 6.3e-05.

Consider GGTATGACCC, for which the switch fluorescence ratio amounted to 1.0394 ± 0.00014.

On to CTGGCTATTG, for which the switch fluorescence ratio was determined as 1.022 ± 0.0028.

Regarding TTCTTATTTT, the switch fluorescence ratio came out at 0.999 ± 0.014.

As to GAGCTTTCCG, the switch fluorescence ratio amounted to 1.19 ± 0.26.

For GCTATTGCGG, the switch fluorescence ratio was 1.028 ± 0.0042.

For GGGTGAAGAT, the switch fluorescence ratio amounted to 1.011 ± 0.0088.

For the sequence TCTGGGAAAA, the switch fluorescence ratio is 0.918 ± 0.037.

As for GCCCTGGGGA, the switch fluorescence ratio is 2.74 ± 2.4.

Turning to TTAGTACCCT, the switch fluorescence ratio came to 1.06 ± 0.043.

As for AAGGGGGTCA, the switch fluorescence ratio stood at 1.016 ± 0.0063.

In the case of TTGTGTGTAA, the switch fluorescence ratio came to 0.995 ± 0.014.

As to ACCTACGCGG, the switch fluorescence ratio came out at 1.97 ± 0.22.

Regarding GGGAACGATC, the switch fluorescence ratio amounted to 1.003 ± 0.0083.

For the sequence TAACGGGAAT, the switch fluorescence ratio was found to be 0.99 ± 0.02.

As for TTTTGAGGCT, the switch fluorescence ratio came out at 1.01 ± 0.073.

Regarding CTTGACAGAG, the switch fluorescence ratio turned out to be 0.9835 ± 0.0074.

Take AGTAGTTCGG: the switch fluorescence ratio is 1.019 ± 0.0075.

As to GGGAAGCATG, the switch fluorescence ratio was determined as 1.02 ± 0.022.

On to AGGGGGTTTA, for which the switch fluorescence ratio stood at 0.999 ± 0.031.

Take TACCGTAAAC: the switch fluorescence ratio was determined as 1.8 ± 0.7.

Turning to TGTGAATTCG, the switch fluorescence ratio was 1.01 ± 0.024.

On to TAGATTGACC, for which the switch fluorescence ratio amounted to 1.04 ± 0.033.

On to AATATTTAAC, for which the switch fluorescence ratio stood at 0.9828 ± 0.0024.

Take TTTTGTGGG: the switch fluorescence ratio amounted to 0.966 ± 0.046.

On to CACTCTCAGC, for which the switch fluorescence ratio turned out to be 1.04 ± 0.012.

In the case of AGTCACGTAG, the switch fluorescence ratio was 1.03 ± 0.019.

As to TGATGTAATG, the switch fluorescence ratio stood at 1 ± 0.02.

Regarding CGTTAGCTTT, the switch fluorescence ratio came out at 1.02 ± 0.026.

Take GGGAGGCGGT: the switch fluorescence ratio turned out to be 1.01 ± 0.019.

On to CGTAAGCGTA, for which the switch fluorescence ratio was 1.04 ± 0.032.

On to TATTAGGTCT, for which the switch fluorescence ratio is 0.991 ± 0.045.

CATCAATCTC: the switch fluorescence ratio amounted to 1.12 ± 0.02.

In the case of CCAAAATTGA, the switch fluorescence ratio came out at 1 ± 0.014.

TTTTACAATT: the switch fluorescence ratio was 0.9885 ± 0.0015.

Consider AAAATTTGGT, for which the switch fluorescence ratio was 1.04 ± 0.029.

As for TTTCTCAAAA, the switch fluorescence ratio was determined as 1.03 ± 0.024.

ATGTATATAG: the switch fluorescence ratio came out at 0.978 ± 0.012.

For TGGGTAAACA, the switch fluorescence ratio was 1.02 ± 0.012.

CTTAGGTTTG: the switch fluorescence ratio turned out to be 1 ± 0.018.

Consider CAGCTACGTC, for which the switch fluorescence ratio was determined as 1.01 ± 0.04.

Take CCGGTGTGCC: the switch fluorescence ratio turned out to be 1.01 ± 0.052.

Regarding CCACCTTAAG, the switch fluorescence ratio was 1.04 ± 0.033.

Regarding GTTGCAGGAA, the switch fluorescence ratio came out at 0.992 ± 0.04.

Consider AGTTAGAGTC, for which the switch fluorescence ratio was 0.99925 ± 0.00026.

Consider CCCAGTGGGA, for which the switch fluorescence ratio came to 2.25 ± 1.7.

Regarding CGGGGAGTAA, the switch fluorescence ratio came to 1.01 ± 0.012.

Take TTGGTTGTAG: the switch fluorescence ratio amounted to 1.01 ± 0.02.

Regarding GTGGGAGGGT, the switch fluorescence ratio is 0.984 ± 0.041.

For the sequence TGGGATATTA, the switch fluorescence ratio came to 0.9995 ± 0.007.

In the case of CAGGCAAGCG, the switch fluorescence ratio stood at 1.04 ± 0.026.

For the sequence GCGTAGGTGT, the switch fluorescence ratio came out at 1.09 ± 0.033.

Regarding CGGCGCCCA, the switch fluorescence ratio was 0.997 ± 0.01.

Turning to TTAAAAAACT, the switch fluorescence ratio worked out at 1.02 ± 0.031.

For the sequence TTTGATCGCA, the switch fluorescence ratio amounted to 0.999 ± 0.025.

Take TTAAATTTCT: the switch fluorescence ratio was 1.02 ± 0.0034.

On to TGTATGGCTA, for which the switch fluorescence ratio came to 1.0085 ± 0.00081.

For the sequence GGTAGTACGG, the switch fluorescence ratio amounted to 0.983 ± 0.014.

In the case of CAGACGGAGT, the switch fluorescence ratio was 1.039 ± 0.01.

As to GGATTGGGGA, the switch fluorescence ratio amounted to 1.02 ± 0.031.

As to TGTCGTTTTC, the switch fluorescence ratio is 0.98 ± 0.03.

For the sequence GAGATATTGG, the switch fluorescence ratio was 0.99 ± 0.013.

As for GCAATTGCTG, the switch fluorescence ratio was determined as 0.9802 ± 0.0023.

For ATGAAAACGT, the switch fluorescence ratio was 1 ± 0.014.

Consider GCATATCCGG, for which the switch fluorescence ratio was 1.02 ± 0.011.

With ATAAATTTTT, the switch fluorescence ratio amounted to 1.01 ± 0.023.

On to TCGAGTTCTT, for which the switch fluorescence ratio is 0.999 ± 0.012.

Regarding CATTTGGGGG, the switch fluorescence ratio was determined as 0.977 ± 0.025.

Consider ACAAAGGTCG, for which the switch fluorescence ratio was 1.01 ± 0.022.

Take ATCAGTTTGG: the switch fluorescence ratio amounted to 1.01 ± 0.015.

Turning to CTTCGTGACA, the switch fluorescence ratio came to 1.042 ± 0.0027.

Source of the values: the supplement of paper PMC10126150.
